Test results taken from US20240368243A1.

How the values were obtained:
[1] = biological target: … (SEQ ID NO: 1)-HLA-A*02 complex (soluble, biotinylated) (human); assay: SPR (BIAcore) or BLI (Octet) per Example 3, biotinylated pHLA immobilised, 25 C
[2] = biological target: … (SEQ ID NO: 1)-HLA-A*02 complex presented on antigen positive cancer cells (human); assay: cell-based or functional assay

| Binder | Kd [1] [nM] | t1/2 [1] [h] | EC50 (mel624), IFN-γ ELISPOT, activation of redirected T cells [2] [nM] |
| --- | --- | --- | --- |
| ImmTAC molecule comprising a79 (SEQ ID NO: 7) and b76 (SEQ ID NO: 24) (TCR, part only; not given: anti-CD3 scFv, linker, TCR constants, part only) TCR alpha, part: GDAKTTQPNSMESNEEEPVHLPCNHSTISGTDYIHWYRQLPSQGPEYVIHGLTSNVNNRMASLAIAEDRKSSTLILHRATLRDAAVYYCILILGHSRLGNYIATFGKGTKLSVIP TCR beta, part: DGGITQSPKYLFRKEGQNVTLSCEQNLNHDAMYWYRQDPGQGLRLIYYSQIMGDEQKGDIAEGYSVSREKKESFPLTVTSAQKNPTAFYLCASSWWTGGSSPIRFGPGTRLTVT | 0.0118 | 58.3 | 0.0172 |
| ImmTAC molecule comprising a28 (SEQ ID NO: 6) and b60 (SEQ ID NO: 19) (TCR, part only; not given: anti-CD3 scFv, linker, TCR constants, part only) TCR alpha, part: GDAKTTQPNSMESNEEEPVHLPCNHSTISGTDYIHWYRQLPSQGPEYVIHGLTSNVNNRMASLAIAEDRKSSTLILHRATLRDAAVYYCILILGHSRAGNYIATFGKGTKLSVIP TCR beta, part: DGGITQSPKYLFRKEGQNVTLSCEQNLNHDAMYWYRQDPGQGLRLIYYSQIMGDEQKGDIAEGYSVSREKKESFPLTVTSAQKNPTAFYLCASSWWTGGASEISFGPGTRLTVT | 0.261 | 2.8 | 0.0317 |
| ImmTAC molecule comprising a79 (SEQ ID NO: 7) and b77 (SEQ ID NO: 18) (TCR, part only; not given: anti-CD3 scFv, linker, TCR constants, part only) TCR alpha, part: GDAKTTQPNSMESNEEEPVHLPCNHSTISGTDYIHWYRQLPSQGPEYVIHGLTSNVNNRMASLAIAEDRKSSTLILHRATLRDAAVYYCILILGHSRLGNYIATFGKGTKLSVIP TCR beta, part: DGGITQSPKYLFRKEGQNVTLSCEQNLNHDAMYWYRQDPGQGLRLIYYSQIMGDEQKGDIAEGYSVSREKKESFPLTVTSAQKNPTAFYLCASSWWTGGAAPIRFGPGTRLTVT | 0.0779 | 8.6 | 0.0138 |
| ImmTAC molecule comprising a28 (SEQ ID NO: 6) and b74 (SEQ ID NO: 17) (TCR, part only; not given: anti-CD3 scFv, linker, TCR constants, part only) TCR alpha, part: GDAKTTQPNSMESNEEEPVHLPCNHSTISGTDYIHWYRQLPSQGPEYVIHGLTSNVNNRMASLAIAEDRKSSTLILHRATLRDAAVYYCILILGHSRAGNYIATFGKGTKLSVIP TCR beta, part: DGGITQSPKYLFRKEGQNVTLSCEQNLNHDAMYWYRQDPGQGLRLIYYSQIMGDEQKGDIAEGYSVSREKKESFPLTVTSAQKNPTAFYLCASSWWTGGASPIRFGPGTRLTVT | 0.182 | 3.7 | 0.0243 |
| ImmTAC molecule comprising a28 (SEQ ID NO: 6) and b75 (SEQ ID NO: 20) (TCR, part only; not given: anti-CD3 scFv, linker, TCR constants, part only) TCR alpha, part: GDAKTTQPNSMESNEEEPVHLPCNHSTISGTDYIHWYRQLPSQGPEYVIHGLTSNVNNRMASLAIAEDRKSSTLILHRATLRDAAVYYCILILGHSRAGNYIATFGKGTKLSVIP TCR beta, part: DGGITQSPKYLFRKEGQNVTLSCEQNLNHDAMYWYRQDPGQGLRLIYYSQIMGDEQKGDIAEGYSVSREKKESFPLTVTSAQKNPTAFYLCASSWWTGGSAPISFGPGTRLTVT | 0.214 | 5.1 | 0.0139 |
| ImmTAC molecule comprising a28 (SEQ ID NO: 6) and b57 (SEQ ID NO: 10) (TCR, part only; not given: anti-CD3 scFv, linker, TCR constants, part only) TCR alpha, part: GDAKTTQPNSMESNEEEPVHLPCNHSTISGTDYIHWYRQLPSQGPEYVIHGLTSNVNNRMASLAIAEDRKSSTLILHRATLRDAAVYYCILILGHSRAGNYIATFGKGTKLSVIP TCR beta, part: DGGITQSPKYLFRKEGQNVTLSCEQNLNHDAMYWYRQDPGQGLRLIYYSQIMGDEQKGDIAEGYSVSREKKESFPLTVTSAQKNPTAFYLCASSWWTSGASPISFGPGTRLTVT | 0.083 | 8.3 | 0.0134 |
| ImmTAC molecule comprising a28 (SEQ ID NO: 6) and b58 (SEQ ID NO: 21) (TCR, part only; not given: anti-CD3 scFv, linker, TCR constants, part only) TCR alpha, part: GDAKTTQPNSMESNEEEPVHLPCNHSTISGTDYIHWYRQLPSQGPEYVIHGLTSNVNNRMASLAIAEDRKSSTLILHRATLRDAAVYYCILILGHSRAGNYIATFGKGTKLSVIP TCR beta, part: DGGITQSPKYLFRKEGQNVTLSCEQNLNHDAMYWYRQDPGQGLRLIYYSQIMGDEQKGDIAEGYSVSREKKESFPLTVTSAQKNPTAFYLCASSWWTGGSSPISFGPGTRLTVT | 0.079 | 8.9 | 0.012 |
| ImmTAC molecule comprising a109 (SEQ ID NO: 8) and b46 (SEQ ID NO: 11) (TCR, part only; not given: anti-CD3 scFv, linker, TCR constants, part only) TCR alpha, part: GDAKTTQPNSMESNEEEPVHLPCNHSTISGTDYIHWYRQLPSQGPEYVIHGLTSNVNNRMASLAIAEDRKSSTLILHRATLRDAAVYYCILILGHSRLGNYQATFGKGTKLSVIP TCR beta, part: DGGITQSPKYLFRKEGQNVTLSCEQNLNHDAMYWYRQDPGQGLRLIYYSQIMGDEQKGDIAEGYSVSREKKESFPLTVTSAQKNPTAFYLCASSWWTGGSAPIRFGPGTRLTVT | 0.17 | 7.31 | 0.0601 |
| ImmTAC molecule comprising a79 (SEQ ID NO: 7) and b63 (SEQ ID NO: 22) (TCR, part only; not given: anti-CD3 scFv, linker, TCR constants, part only) TCR alpha, part: GDAKTTQPNSMESNEEEPVHLPCNHSTISGTDYIHWYRQLPSQGPEYVIHGLTSNVNNRMASLAIAEDRKSSTLILHRATLRDAAVYYCILILGHSRLGNYIATFGKGTKLSVIP TCR beta, part: DGGITQSPKYLFRKEGQNVTLSCEQNLNHDAMYWYRQDPGQGLRLIYYSQIVGDEQKGDIAEGYSVSREKKESFPLTVTSAQKNPTAFYLCASSWWTGGSAPIRFGPGTRLTVT | 0.079 | 10.8 | 0.0229 |
